# Data reported in PMC3919806.
# Target: Lrp4-myc (mouse full length Lrp4) (mouse) (UniProt Q8VI56)
# UniProt Q8VI56, sequence (Q8VI56 21-1905): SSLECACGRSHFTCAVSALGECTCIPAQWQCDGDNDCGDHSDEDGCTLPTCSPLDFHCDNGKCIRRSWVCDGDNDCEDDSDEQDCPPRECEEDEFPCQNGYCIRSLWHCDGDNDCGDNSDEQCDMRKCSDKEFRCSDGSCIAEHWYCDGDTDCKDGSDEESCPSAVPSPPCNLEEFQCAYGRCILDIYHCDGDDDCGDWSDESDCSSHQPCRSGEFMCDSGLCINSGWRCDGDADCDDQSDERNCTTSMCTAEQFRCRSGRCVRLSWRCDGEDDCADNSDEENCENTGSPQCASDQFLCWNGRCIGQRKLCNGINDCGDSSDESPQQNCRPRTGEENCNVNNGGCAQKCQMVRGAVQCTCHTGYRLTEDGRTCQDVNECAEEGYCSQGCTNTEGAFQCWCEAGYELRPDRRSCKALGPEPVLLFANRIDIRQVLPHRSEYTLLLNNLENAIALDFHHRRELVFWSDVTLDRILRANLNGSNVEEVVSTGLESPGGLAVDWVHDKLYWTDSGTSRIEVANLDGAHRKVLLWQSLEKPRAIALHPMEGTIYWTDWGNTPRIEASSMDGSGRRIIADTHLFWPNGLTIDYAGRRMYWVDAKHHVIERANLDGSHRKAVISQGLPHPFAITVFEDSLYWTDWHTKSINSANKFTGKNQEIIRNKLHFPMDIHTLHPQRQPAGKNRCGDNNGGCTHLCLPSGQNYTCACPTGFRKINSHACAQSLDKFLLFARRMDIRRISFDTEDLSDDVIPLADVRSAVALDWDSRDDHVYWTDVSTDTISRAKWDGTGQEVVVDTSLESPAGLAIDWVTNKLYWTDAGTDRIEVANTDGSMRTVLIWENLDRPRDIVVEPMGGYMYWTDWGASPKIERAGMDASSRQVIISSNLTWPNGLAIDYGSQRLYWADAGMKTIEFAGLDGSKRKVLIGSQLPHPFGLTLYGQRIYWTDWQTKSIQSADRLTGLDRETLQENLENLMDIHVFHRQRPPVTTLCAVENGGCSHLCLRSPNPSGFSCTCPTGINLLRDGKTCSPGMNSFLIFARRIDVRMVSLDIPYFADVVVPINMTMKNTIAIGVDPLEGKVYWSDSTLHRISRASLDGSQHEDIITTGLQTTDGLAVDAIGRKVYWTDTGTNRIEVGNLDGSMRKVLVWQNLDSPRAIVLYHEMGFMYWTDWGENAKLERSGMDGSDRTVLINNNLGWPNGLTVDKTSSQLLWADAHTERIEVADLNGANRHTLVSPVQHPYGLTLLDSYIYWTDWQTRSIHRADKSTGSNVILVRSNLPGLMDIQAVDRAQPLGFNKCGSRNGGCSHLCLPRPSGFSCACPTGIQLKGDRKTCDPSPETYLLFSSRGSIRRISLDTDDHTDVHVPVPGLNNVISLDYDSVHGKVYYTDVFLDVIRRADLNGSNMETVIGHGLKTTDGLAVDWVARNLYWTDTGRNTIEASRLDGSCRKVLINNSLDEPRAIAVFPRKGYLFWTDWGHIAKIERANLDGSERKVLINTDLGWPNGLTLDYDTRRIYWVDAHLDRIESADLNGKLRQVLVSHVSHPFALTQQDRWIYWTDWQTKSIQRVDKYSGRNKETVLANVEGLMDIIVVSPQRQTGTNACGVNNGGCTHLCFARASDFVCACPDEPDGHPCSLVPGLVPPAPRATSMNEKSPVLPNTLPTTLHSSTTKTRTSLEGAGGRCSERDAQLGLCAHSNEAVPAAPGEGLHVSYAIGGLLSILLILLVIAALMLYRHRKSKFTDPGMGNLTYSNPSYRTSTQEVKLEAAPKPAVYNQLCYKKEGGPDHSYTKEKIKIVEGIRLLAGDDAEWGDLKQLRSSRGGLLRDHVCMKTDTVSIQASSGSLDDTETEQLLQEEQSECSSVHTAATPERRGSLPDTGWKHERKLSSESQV
substance,measurement,value
"NT-1654, C-terminal 44 kDa fragment of murine agrin (from UniProt A2ASQ1 1519-1950) (domain or fragment)","AChR clustering on differentiated C2C12 myotubes, 16 h (area of AChR clusters normalized to myotube area), EC50",0.44 nM
